The results in this text go back to patent publication US20200040057A1 (IMMATICS BIOTECHNOLOGIES, published 2020).

Test [1] deals with HLA-B*07 (human). In words: UV peptide exchange ELISA; +++ = yield >50.
Test [2] addresses HLA-B*07 (human). Briefly: UV peptide exchange ELISA; ++++ = yield >75%.

Molecule SPSREASAL gave a peptide exchange yield in the test with HLA-B*07 [1] of 50 to 75%. As for RPAPGPAPFV, the peptide exchange yield in the test with HLA-B*07 [1] was 50 to 75%. SPVFYVQTL: the peptide exchange yield with HLA-B*07 [2] is > 75%. APLHGGGSL gave a peptide exchange yield with HLA-B*07 [1] of 50 to 75%. With YPSPLNKHSF, the peptide exchange yield with HLA-B*07 [1] was 50 to 75%.

RPYSIYPHGVTF: the peptide exchange yield in the test with HLA-B*07 [2] is > 75%.

In the test with HLA-B*07 [1], HPNKIKASL had a peptide exchange yield of 50 to 75%.

In the test with HLA-B*07 [1], NPIFGRKEL returned a peptide exchange yield of 50 to 75%.

RNRQVATAL yielded a peptide exchange yield in the test with HLA-B*07 [1] of 50 to 75%. RPPPSRRAVL came in with a peptide exchange yield with HLA-B*07 [1] of 50 to 75%. Consider KPRTIYSSL, for which the peptide exchange yield with HLA-B*07 [2] is > 75%.

As for MPKTNLSKM, the peptide exchange yield with HLA-B*07 [1] was in the range of 50 to 75%.

In the test with HLA-B*07 [1], KTKSLAQQL yielded a peptide exchange yield of 50 to 75%. VWEPQGSSRSL yielded a peptide exchange yield in the test with HLA-B*07 [1] of 50 to 75%. On the same count and under the same terms, the figure for TVRPKNAAL is 50 to 75%; for LPSPAHAFRAL it is 50 to 75%. For the molecule VPAQRLGLLL, the peptide exchange yield in the test with HLA-B*07 [1] is 50 to 75%. Take NPERHKPSF: the peptide exchange yield with HLA-B*07 [1] lay within 50 to 75%. The same measure, in the same setting: with GPKKFIVKL the figure was 50 to 75%.

VPHTGRYTCL had a peptide exchange yield with HLA-B*07 [1] of 50 to 75%. In the case of RPVQGIPTY, the peptide exchange yield with HLA-B*07 [1] lay in the range of 50 to 75%. As for FPYSGDKILV, in the test with HLA-B*07 [1], the peptide exchange yield was 50 to 75%. LPVSPARAL had a peptide exchange yield in the test with HLA-B*07 [1] of 50 to 75%.

Consider QPRLVPGETL, for which the peptide exchange yield with HLA-B*07 [2] was > 75%. Consider SPSSVFTSK, for which the peptide exchange yield with HLA-B*07 [1] was in the range of 50 to 75%. LVILQHQAM came in with a peptide exchange yield with HLA-B*07 [1] of 50 to 75%. Regarding GSRPVTGSV, in the test with HLA-B*07 [1], the peptide exchange yield was in the range of 50 to 75%.

Molecule RPSQLAPATL displayed a peptide exchange yield in the test with HLA-B*07 [1] of 50 to 75%. In the test with HLA-B*07 [1], LPLGGHKSL registered a peptide exchange yield of 50 to 75%. Turning to RPSGTAGAAL, the peptide exchange yield with HLA-B*07 [1] fell in the range of 50 to 75%.

In the test with HLA-B*07 [1], APRGSPPI displayed a peptide exchange yield of 50 to 75%.

Molecule LPQRPNARL had a peptide exchange yield with HLA-B*07 [1] of 50 to 75%.

With VPVSRPVL, in the test with HLA-B*07 [2], the peptide exchange yield was > 75%.

As to KPKVESQAL, the peptide exchange yield in the test with HLA-B*07 [2] is > 75%. For LPVSSPVTL, in the test with HLA-B*07 [2], the peptide exchange yield is > 75%. As for KIEQIRAVL, the peptide exchange yield with HLA-B*07 [1] was in the range of 50 to 75%. In turn, APFHIDRLF gave a peptide exchange yield with HLA-B*07 [1] of 50 to 75%. RPLPVSPARAL returned a peptide exchange yield in the test with HLA-B*07 [1] of 50 to 75%. In the case of RPRQTGALM, in the test with HLA-B*07 [2], the peptide exchange yield was > 75%. Take LPALLRSGLTL: in the test with HLA-B*07 [2], the peptide exchange yield is > 75%.

FPNVYSTLVL: the peptide exchange yield with HLA-B*07 [2] was > 75%. Consider RLAHVRARL, for which the peptide exchange yield with HLA-B*07 [1] was 50 to 75%. LPWEQNEQV: the peptide exchange yield in the test with HLA-B*07 [1] lay within 50 to 75%. As for VPYYPRANL, the peptide exchange yield with HLA-B*07 [1] was 50 to 75%. Same read-out and setting: the figure for SSASFSSELFRH is 50 to 75%. In turn, MPRLLRLSL returned a peptide exchange yield with HLA-B*07 [1] of 50 to 75%. The same measure, in the same setting: the figure for VPRRPARAL is 50 to 75%.

SPGDKRLAAYL yielded a peptide exchange yield in the test with HLA-B*07 [1] of 50 to 75%. MPFRNIRSIL showed a peptide exchange yield with HLA-B*07 [1] of 50 to 75%.

For the molecule HVAQPAVVL, the peptide exchange yield with HLA-B*07 [1] fell in the range of 50 to 75%. Consider TPRIGPKVSL, for which the peptide exchange yield with HLA-B*07 [1] was 50 to 75%. Consider VPAQRLGLL, for which the peptide exchange yield with HLA-B*07 [2] is > 75%. RPLPNSVIHV: the peptide exchange yield with HLA-B*07 [1] was in the range of 50 to 75%. Turning to SAQSLHPVL, in the test with HLA-B*07 [1], the peptide exchange yield fell in the range of 50 to 75%. The molecule YPMIPPAQL came in with a peptide exchange yield with HLA-B*07 [1] of 50 to 75%. For SPRIPFSTF, in the test with HLA-B*07 [2], the peptide exchange yield was > 75%. In the test with HLA-B*07 [1], VPGSDPARYEFL yielded a peptide exchange yield of 50 to 75%. The molecule IPDTIASVL had a peptide exchange yield in the test with HLA-B*07 [1] of 50 to 75%. For the molecule VAAAARLTL, the peptide exchange yield with HLA-B*07 [1] is 50 to 75%. IPIRVDQNGAF: the peptide exchange yield with HLA-B*07 [1] lay in the range of 50 to 75%. In the case of VPSDITTAF, the peptide exchange yield with HLA-B*07 [1] lay within 50 to 75%. In turn, GPFQRAAL had a peptide exchange yield in the test with HLA-B*07 [1] of 50 to 75%. With SVAIAHGVF, the peptide exchange yield in the test with HLA-B*07 [2] is > 75%. For FPRLVGPDFF, the peptide exchange yield with HLA-B*07 [2] is > 75%. Take LPMTVISVL: the peptide exchange yield with HLA-B*07 [2] was > 75%. Turning to VPVSHPVL, the peptide exchange yield with HLA-B*07 [2] was > 75%.

With RPRLRDLPAL, the peptide exchange yield with HLA-B*07 [1] lay within 50 to 75%. The molecule LPRALMRST had a peptide exchange yield with HLA-B*07 [1] of 50 to 75%.
